In test [1] the target is T1, rHuman EGF R/Fc Chimera, CF (R&D Systems Cat#344-ER) (human, UniProt P00533 25-645).
T1 construct: Bought recombinant Fc chimera; also called epidermal growth factor receptor; Fc part of the bought chimera not given
Description: MSD Multispot ECL, antigen spotted on plate, Fab in solution; blank spot of the row 373.

Test [2] has as its target T2, rHuman HGF R/c-MET/Fc Chimera, CF (R&D Systems Cat#358-MT/CF) (human, UniProt P08581 25-932).
T2 construct: Bought recombinant Fc chimera; also called HGF R/Fc; hepatocyte growth factor receptor; Fc part of the bought chimera not given
The test is described as above.

For test [3], the target named is T3, rHuman Notch-1/Fc Chimera, CF (R&D Systems Cat#3647-TK) (human, UniProt P46531 19-526).
T3 construct: Bought recombinant Fc chimera; Fc part of the bought chimera not given
The test is described as above.

The target of test [4] is T4, rHuman CD44/Fc Chimera, CF (R&D Systems Cat#3660-CD) (human, UniProt P16070 21-220).
T4 construct: Bought recombinant Fc chimera; Fc part of the bought chimera not given
The description is as above.

Test [5] concerns the target T5, rHuman P-Cadherin/Fc Chimera, CF (R&D Systems Cat#861-PC) (human, UniProt P22223 108-654).
T5 construct: Bought recombinant Fc chimera; Fc part of the bought chimera not given
The test is described as above.

Test [6] deals with T6, rHuman Erythropoietin R/Fc Chimera, CF (R&D Systems Cat#963-ER) (human, UniProt P19235 25-250).
T6 construct: Bought recombinant Fc chimera; also called EPO R; EPO R/Fc; Fc part of the bought chimera not given
T6 sequence (looked up): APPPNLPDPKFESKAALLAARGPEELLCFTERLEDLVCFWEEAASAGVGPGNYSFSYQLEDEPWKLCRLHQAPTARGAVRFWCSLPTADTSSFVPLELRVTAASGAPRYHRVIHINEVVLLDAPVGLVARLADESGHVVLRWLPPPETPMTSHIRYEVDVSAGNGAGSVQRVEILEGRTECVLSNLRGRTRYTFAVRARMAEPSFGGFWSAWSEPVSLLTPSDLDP
Described as above.

The target in test [7] is T7, Recombinant Human DLL4 (R&D Systems Cat#1506-D4/CF) (human, UniProt Q9NR61 27-524).
T7 construct: Bought recombinant protein; also called delta-like protein 4; Delta-like 4
Described as above.

For test [8], the target named is T8, rHuman IGF-1 sR (insulin-like growth factor-1 soluble receptor), CF (R&D Systems Cat#391-GR) (human, UniProt P08069 31-932).
T8 construct: Bought recombinant soluble receptor; The column head prints only 'IGF-1'
Description: MSD multispot ECL, antigen spotted on plate, Fab in solution; blank spot of this row 184.

For test [9], the target named is T9, rHuman P-Cadherin/Fc Chimera, CF (R&D Systems Cat#861-PC) (human, UniProt P22223 108-654).
T9 construct: Bought recombinant protein; Fc part of the bought chimera not given
The description is as above.

In test [10] the target is T10, Recombinant Human DLL4 (R&D Systems Cat#1506-D4/CF) (human, UniProt Q9NR61 27-524).
T10 construct: Bought recombinant protein; also called delta-like protein 4; rHuman DLL4
The description is as above.

Test [11] has as its target T11, rHuman ErbB2/Fc Chimera, CF (R&D Systems Cat#1129-ER) (human, UniProt P04626 23-652).
T11 construct: Bought recombinant protein; Fc part of the bought chimera not given
The description is as above.

Test [12] has as its target T12, rHuman EGF R/Fc Chimera, CF (R&D Systems Cat#344-ER) (human, UniProt P00533 25-645).
T12 construct: Bought recombinant protein; Fc part of the bought chimera not given
The test is described as above.

Test [13] concerns the target T13, rHuman HGF R/c-MET/Fc Chimera, CF (R&D Systems Cat#358-MT/CF) (human, UniProt P08581 25-932).
T13 construct: Bought recombinant protein; also called HGF R/Fc; Fc part of the bought chimera not given
The description is as above.

Test [14] has as its target T8, rHuman IGF-1 sR (insulin-like growth …). Description: MSD multispot ECL, antigen spotted on plate, Fab in solution; blank spot of this row 254.
Test [15] deals with T9, rHuman P-Cadherin/Fc Chimera, CF (R&D …). Described as above.
The target of test [16] is T10, Recombinant Human DLL4 (R&D Systems …). Described as above.
Test [17] deals with T11, rHuman ErbB2/Fc Chimera, CF (R&D …). The test is described as above.
The target of test [18] is T12, rHuman EGF R/Fc Chimera, CF (R&D …). Described as above.
For test [19], the target named is T13, rHuman HGF R/c-MET/Fc Chimera, CF (R&D …). The description is as above.
Test [20] concerns the target T8, rHuman IGF-1 sR (insulin-like growth …). Description: MSD multispot ECL, antigen spotted on plate, Fab in solution; blank spot of this row 338.
Test [21] deals with T9, rHuman P-Cadherin/Fc Chimera, CF (R&D …). Described as above.
Test [22] deals with T10, Recombinant Human DLL4 (R&D Systems …). The description is as above.
The target in test [23] is T11, rHuman ErbB2/Fc Chimera, CF (R&D …). Described as above.
Test [24] addresses T12, rHuman EGF R/Fc Chimera, CF (R&D …). The description is as above.
For test [25], the target named is T13, rHuman HGF R/c-MET/Fc Chimera, CF (R&D …). Described as above.
Test [26] deals with T8, rHuman IGF-1 sR (insulin-like growth …). Description: MSD multispot ECL, antigen spotted on plate, Fab in solution; blank spot of this row 407.
For test [27], the target named is T9, rHuman P-Cadherin/Fc Chimera, CF (R&D …). The description is as above.
Test [28] concerns the target T10, Recombinant Human DLL4 (R&D Systems …). The description is as above.
In test [29] the target is T11, rHuman ErbB2/Fc Chimera, CF (R&D …). The description is as above.
Test [30] concerns the target T12, rHuman EGF R/Fc Chimera, CF (R&D …). The test is described as above.
The target in test [31] is T13, rHuman HGF R/c-MET/Fc Chimera, CF (R&D …). Described as above.
The target of test [32] is T14, Recombinant Human DLL4 (delta-like protein 4) (human, UniProt Q9NR61 27-524).
T14 construct: Bought recombinant human DLL4 (R&D Systems Cat#1506-D4/CF); also called rHuman DLL4; Delta-like ligand 4
The test is described as follows: SPR, Fab on recombinant human DLL4. In general terms: Surface plasmon resonance follows binding to a sensor surface in real time, without labels.

Test [33] addresses T14, Recombinant Human DLL4 (delta-like …). Description: SPR, Fab on recombinant human DLL4; two-site binding, this site 10% by the footnote.
Test [34] has the same target. Description: SPR, Fab on recombinant human DLL4; two-site binding, this site 89% by the footnote.

B1: Fab VH5-51_IGHD5-18*01>3_IGHJ4*01 G100K/G104T G24A & V3-4_IGLJ1*01 (Fab, V domains shown)
VH: EVQLVQSGAEVKKPGESLKISCKASGYSFTSYWIGWVRQMPGKGLEWMGIIYPGDSDTRYSPSFQGQVTISADKSISTAYLQWSSLKASDTAMYYCARRKYSYTYDYFDYWGQGTLVTVSS
VL: QTVVTQEPSFSVSPGGTVTLTCGLSSGSVSTSYYPSWYQQTPGQAPRTLIYSTNTRSSGVPDRFSGSILGNKAALTITGAQADDESDYYCVLYMGSGISYVFGTGTKVTVL
notes: Fab made in E. coli; VH cloned into Plasmid A (CH1, His6 and Flag tags), lambda VL into Plasmid E (lambda CL); also called KT G24A
For B1, the ECL signal in test [1] was 757; in [2], 803; in [3], 493; in test [4] it was 547; in [5], 212; in test [6], 551. Also, the ECL signal in [7] amounted to 45500.

B2: Fab VH1-46_IGHD6-6*01_IGHJ1*01 S102A/S103P/S104F/H111F (H:APFF) & L6_IGKJ1*01 (Fab, V domains shown)
VH: QVQLVQSGAEVKKPGASVKVSCKASGYTFTSYYMHWVRQAPGQGLEWMGIINPSGGSTSYAQKFQGRVTMTRDTSTSTVYMELSSLRSEDTAVYYCAREEYAPFSAEYFQFWGQGTLVTVSS
VL: not shown
notes: Fab expressed in E. coli from plasmid A (CH1, His6 and Flag tags) and plasmid C (kappa CL); also called wildtype (light chain); H:APFF & L:wt
On to B2, for which the ECL signal in [8] came to 173; in test [9], 240; in test [10] it was 132000; in [11] it was 322; in test [12], 409; in test [13] it was 263. In addition, the ECL signal in [14] was 306; in test [15], 138; in test [16] it was 148000; in test [17], 351; in test [18], 209; in test [19], 176. The ECL signal came out at 468 in [20]; 399 in test [21]; 149000 in test [22]; 379 in test [23]; 425 in test [24]; 332 in test [25]. Further, the ECL signal in test [26] was 357; in test [27], 277; in test [28], 126000; in [29], 292; in test [30] it was 329; in test [31], 237.

B3: Fab VH1-46_IGHD6-6*01_IGHJ1*01 S102A/S103P/S104F/H111F (APFF) & L6_IGKJ1*01 S28N/S30D/S31H (NDH) (Fab, V domains shown)
VH: B2 VH
VL: EIVLTQSPATLSLSPGERATLSCRASQNVDHYLAWYQQKPGQAPRLLIYDASNRATGIPARFSGSGSGTDFTLTISSLEPEDFAVYYCQQRSNWPPWTFGQGTKVEIKR
notes: Fab with CH1 (Plasmid A, His6 and Flag tags) and kappa CL (Plasmid C); Some paragraphs print S28D/S30N/S31H for the same NDH chain; also called H:APFF & L:NDH; APFF-NDH
Usually koff stands for the first-order rate constant of dissociation. The kon is a measure of how fast the partners come together. By Kd is commonly meant the constant that tells how readily two partners part at equilibrium. As to B3, in test [32], the koff was 0.0689 s⁻¹ and the on-rate constant (kon) was 444000 M⁻¹ s⁻¹. Moreover, the Kd in [33] is 14 nM. Further, in [34], the dissociation constant Kd is 155 nM.

Source of the values: patent publication US20120316071A1 (published 2012).
